These results are taken from publication PMC13269782.

Some targets named below: Cx36 K238Q (human) (UniProt Q9UKL4); Cx36 K238E (human) (UniProt Q9UKL4); Cx36 E230K (human) (UniProt Q9UKL4); Cx36 E230K-E239K (human) (UniProt Q9UKL4); Cx43, human (human) (UniProt P17302); Cx30, human (human) (UniProt O95452); Cx31.3, human (human) (UniProt Q8NFK1); Cx32 (human) (UniProt P08034); Cx45, human (human) (UniProt P36383); Cx26, human (human) (UniProt P29033); Cx36 E239K (human) (UniProt Q9UKL4); Cx36 K238E-E230K (human) (UniProt Q9UKL4); Cx36 K238A (human) (UniProt Q9UKL4); Cx36 K238E-E239K (human) (UniProt Q9UKL4); Cx36 E241K (human) (UniProt Q9UKL4); Cx36 E241A (human) (UniProt Q9UKL4).

For assay [1], the target named is Cx36 K238E-E230K-E239K-E241K (human) (UniProt Q9UKL4).
The target in the next assay is T1, Cx47, human (human) (UniProt Q5T442).
T1 sequence: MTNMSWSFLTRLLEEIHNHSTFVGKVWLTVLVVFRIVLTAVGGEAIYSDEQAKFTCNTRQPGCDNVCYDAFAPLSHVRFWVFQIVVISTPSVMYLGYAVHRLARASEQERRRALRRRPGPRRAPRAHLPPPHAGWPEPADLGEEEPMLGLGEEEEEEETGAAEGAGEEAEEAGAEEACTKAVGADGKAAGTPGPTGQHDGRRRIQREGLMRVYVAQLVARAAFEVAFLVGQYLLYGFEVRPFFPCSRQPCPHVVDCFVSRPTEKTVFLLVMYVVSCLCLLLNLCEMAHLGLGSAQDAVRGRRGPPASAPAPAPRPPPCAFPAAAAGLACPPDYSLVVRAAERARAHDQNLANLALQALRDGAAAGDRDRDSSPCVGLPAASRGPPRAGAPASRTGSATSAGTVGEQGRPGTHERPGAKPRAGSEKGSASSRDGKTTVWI

Assay [2] concerns the target Connexin36 (Cx36), human, wildtype (human) (UniProt Q9UKL4).
Assay [3] addresses Cx36 E230K-E239K-E241K (human) (UniProt Q9UKL4).
Assay [4] deals with Cx36 K238E-E230K-E239K (human) (UniProt Q9UKL4).

Sequence of Connexin36 (Cx36), human, wildtype (Q9UKL4 whole entry): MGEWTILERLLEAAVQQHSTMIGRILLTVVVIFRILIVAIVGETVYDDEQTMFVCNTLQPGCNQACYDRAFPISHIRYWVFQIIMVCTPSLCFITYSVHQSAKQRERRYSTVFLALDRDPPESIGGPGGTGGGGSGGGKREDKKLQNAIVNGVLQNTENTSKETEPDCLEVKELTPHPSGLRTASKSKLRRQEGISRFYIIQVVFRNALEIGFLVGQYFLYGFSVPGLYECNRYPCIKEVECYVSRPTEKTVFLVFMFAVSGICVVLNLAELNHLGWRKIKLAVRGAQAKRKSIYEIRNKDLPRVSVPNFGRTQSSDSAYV
Sequence of Cx30, human (O95452 whole entry): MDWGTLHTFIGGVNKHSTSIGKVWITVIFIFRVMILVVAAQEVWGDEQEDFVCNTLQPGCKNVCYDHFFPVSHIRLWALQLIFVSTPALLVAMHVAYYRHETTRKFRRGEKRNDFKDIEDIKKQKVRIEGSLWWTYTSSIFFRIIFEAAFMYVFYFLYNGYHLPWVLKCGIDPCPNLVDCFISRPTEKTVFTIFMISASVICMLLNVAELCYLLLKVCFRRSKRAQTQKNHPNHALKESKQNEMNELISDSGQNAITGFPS
Sequence of Cx30, human (human) (O95452 whole entry): as above
Sequence of Cx32 (P08034 whole entry): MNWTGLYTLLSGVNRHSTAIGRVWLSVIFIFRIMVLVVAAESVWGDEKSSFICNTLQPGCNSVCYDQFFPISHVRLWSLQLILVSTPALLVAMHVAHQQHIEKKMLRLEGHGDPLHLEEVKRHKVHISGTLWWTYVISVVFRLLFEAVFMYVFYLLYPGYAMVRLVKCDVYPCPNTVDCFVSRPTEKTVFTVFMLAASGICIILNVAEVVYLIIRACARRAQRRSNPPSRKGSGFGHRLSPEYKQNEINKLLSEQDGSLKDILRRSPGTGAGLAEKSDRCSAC
Sequence of Cx32 (human) (P08034 whole entry): as above
Sequence of Cx45, human (P36383 whole entry): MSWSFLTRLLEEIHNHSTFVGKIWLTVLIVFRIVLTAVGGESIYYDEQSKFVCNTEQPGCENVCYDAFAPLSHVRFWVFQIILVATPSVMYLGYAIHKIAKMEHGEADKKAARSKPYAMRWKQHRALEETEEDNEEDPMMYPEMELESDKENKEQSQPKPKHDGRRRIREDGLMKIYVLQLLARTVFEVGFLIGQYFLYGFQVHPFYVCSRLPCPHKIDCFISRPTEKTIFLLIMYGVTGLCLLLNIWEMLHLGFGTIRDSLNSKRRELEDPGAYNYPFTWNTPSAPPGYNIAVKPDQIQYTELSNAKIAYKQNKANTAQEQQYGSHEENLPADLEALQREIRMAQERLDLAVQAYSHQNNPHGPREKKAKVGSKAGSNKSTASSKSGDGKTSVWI
Sequence of Cx45, human (human) (P36383 whole entry): as above
Sequence of Cx43, human (P17302 whole entry): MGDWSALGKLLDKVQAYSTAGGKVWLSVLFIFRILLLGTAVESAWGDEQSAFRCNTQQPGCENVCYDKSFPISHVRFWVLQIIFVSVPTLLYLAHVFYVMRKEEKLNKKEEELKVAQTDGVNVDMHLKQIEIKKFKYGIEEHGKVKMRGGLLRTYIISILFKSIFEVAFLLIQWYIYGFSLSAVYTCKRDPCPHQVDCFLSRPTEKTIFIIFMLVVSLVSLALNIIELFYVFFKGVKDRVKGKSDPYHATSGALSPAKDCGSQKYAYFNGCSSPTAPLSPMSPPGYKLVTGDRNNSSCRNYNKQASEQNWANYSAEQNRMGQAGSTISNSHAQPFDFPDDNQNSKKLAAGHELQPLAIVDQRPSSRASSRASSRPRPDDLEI
Sequence of Cx43, human (human) (P17302 whole entry): as above
Sequence of Cx31.3, human (Q8NFK1 whole entry): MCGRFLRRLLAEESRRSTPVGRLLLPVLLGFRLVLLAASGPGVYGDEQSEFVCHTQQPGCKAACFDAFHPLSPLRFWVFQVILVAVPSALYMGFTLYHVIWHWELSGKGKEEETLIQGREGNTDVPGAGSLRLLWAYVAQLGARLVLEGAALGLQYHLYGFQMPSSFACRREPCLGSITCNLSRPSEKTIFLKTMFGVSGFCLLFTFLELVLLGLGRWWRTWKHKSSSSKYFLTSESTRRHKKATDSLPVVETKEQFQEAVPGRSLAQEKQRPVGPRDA
Sequence of Cx31.3, human (human) (Q8NFK1 whole entry): as above

Regarding “Cx36 K238Q (from UniProt Q9UKL4 1-321) (natural protein)”, in the assay with Cx36 K238Q (human), the median junctional conductance (Gj), dual whole-cell patch clamp of DKO HEK293 cell pairs, homotypic; IQR 0–0; 16 pairs was 0 nS.
“Cx36 E230K (from UniProt Q9UKL4 1-321) (natural protein)” returned a median junctional conductance (Gj), dual whole-cell patch clamp of DKO HEK293 cell pairs, heterotypic; IQR 0.05–0.22; 20 pairs with Cx36 K238E (human) of 0.1 nS. The same substance yielded a median junctional conductance (Gj), dual whole-cell patch clamp of DKO HEK293 cell pairs, homotypic; IQR 0–0.14; 28 pairs with Cx36 E230K (human) of 0.01 nS. In the assay with Cx36 E230K-E239K (human), this substance displayed a median junctional conductance (Gj), dual whole-cell patch clamp of DKO HEK293 cell pairs, heterotypic; IQR 0–0; 20 pairs of 0 nS.
As for “Cx43, human (from UniProt P17302 1-382) (natural protein)”, the median junctional conductance (Gj), dual whole-cell patch clamp of DKO HEK293 cell pairs, homotypic; IQR 0–9.93; 17 pairs with Cx43, human (human) is 0.46 nS.
On to “Cx36 K238E-E230K-E239K-E241K (from UniProt Q9UKL4 1-321) (natural protein)”, for which the median junctional conductance (Gj), dual whole-cell patch clamp of DKO HEK293 cell pairs, homotypic; IQR 0–0; 16 pairs in assay [1] was found to be 0 nS.
Take “Connexin36 (Cx36), human, wildtype (from UniProt Q9UKL4 1-321) (natural protein)”: the median junctional conductance (Gj), dual whole-cell patch clamp of DKO HEK293 cell pairs, heterotypic; IQR 0–0; 15 pairs was 0 nS with Cx30, human (human) and 0 nS in the assay with Cx31.3, human (human). Moreover, the median junctional conductance (Gj), dual whole-cell patch clamp of DKO HEK293 cell pairs, heterotypic; IQR 0–0; 25 pairs in the assay with Cx43, human (human) was found to be 0 nS. For the same substance, the median junctional conductance (Gj), dual whole-cell patch clamp of DKO HEK293 cell pairs, heterotypic; IQR 0–0; 19 pairs with Cx32 (human) turned out to be 0 nS; with Cx26, human (human) it was 0 nS. Also, the median junctional conductance (Gj), dual whole-cell patch clamp of DKO HEK293 cell pairs, heterotypic; IQR 0–0; 21 pairs in the assay with Cx47, human (human) was found to be 0 nS. In addition, the median junctional conductance (Gj), dual whole-cell patch clamp of DKO HEK293 cell pairs, heterotypic; IQR 0–0; 26 pairs in the assay with Cx45, human (human) came to 0 nS. The substance further yielded a median junctional conductance (Gj), dual whole-cell patch clamp of DKO HEK293 cell pairs, heterotypic; IQR 0.08–0.19; 18 pairs with Cx36 E239K (human) of 0.13 nS. The substance further came in with a median junctional conductance (Gj), dual whole-cell patch clamp of DKO HEK293 cell pairs, heterotypic; IQR 0–0; 16 pairs in the assay with Cx36 K238E-E230K (human) of 0 nS. Besides, in the assay with Cx36 K238A (human), the median junctional conductance (Gj), dual whole-cell patch clamp of DKO HEK293 cell pairs, heterotypic; IQR 0.05–0.24; 17 pairs is 0.16 nS. Further, the median junctional conductance (Gj), dual whole-cell patch clamp of DKO HEK293 cell pairs, homotypic; IQR 0.02–0.19; 38 pairs in assay [2] was found to be 0.1 nS. Moreover, the median junctional conductance (Gj), dual whole-cell patch clamp of DKO HEK293 cell pairs, heterotypic; IQR 0.04–0.22; 15 pairs with Cx36 E230K (human) is 0.14 nS. The substance further had a median junctional conductance (Gj), dual whole-cell patch clamp of DKO HEK293 cell pairs, heterotypic; IQR 0–0.10; 15 pairs with Cx36 K238E-E239K (human) of 0.06 nS. For the same substance, the median junctional conductance (Gj), dual whole-cell patch clamp of DKO HEK293 cell pairs, heterotypic; IQR 0.11–0.41; 19 pairs with Cx36 E230K-E239K (human) amounted to 0.22 nS. The same substance had a median junctional conductance (Gj), dual whole-cell patch clamp of DKO HEK293 cell pairs, heterotypic; IQR 0.01–0.31; 16 pairs with Cx36 K238Q (human) of 0.13 nS.
Take “Cx36 K238E-E239K (from UniProt Q9UKL4 1-321) (natural protein)”: in the assay with Cx36 K238E-E239K (human), the median junctional conductance (Gj), dual whole-cell patch clamp of DKO HEK293 cell pairs, homotypic; IQR 0–0; 15 pairs was 0 nS.
Regarding “Cx36 E241K (from UniProt Q9UKL4 1-321) (natural protein)”, in the assay with Cx36 E241K (human), the median junctional conductance (Gj), dual whole-cell patch clamp of DKO HEK293 cell pairs, homotypic; IQR 0–0; 25 pairs was 0 nS.
For “Cx36 E239K (from UniProt Q9UKL4 1-321) (natural protein)”, the median junctional conductance (Gj), dual whole-cell patch clamp of DKO HEK293 cell pairs, heterotypic; IQR 0.08–0.2; 23 pairs with Cx36 K238E (human) is 0.11 nS. Further, in the assay with Cx36 E239K (human), the median junctional conductance (Gj), dual whole-cell patch clamp of DKO HEK293 cell pairs, homotypic; IQR 0.04–0.31; 30 pairs was found to be 0.12 nS. This substance showed a median junctional conductance (Gj), dual whole-cell patch clamp of DKO HEK293 cell pairs, heterotypic; IQR 0–0.12; 21 pairs with Cx36 E230K-E239K (human) of 0.05 nS.
In the assay with Cx30, human (human), “Cx30, human (from UniProt O95452 1-261) (natural protein)” came in with a median junctional conductance (Gj), dual whole-cell patch clamp of DKO HEK293 cell pairs, homotypic; IQR 0.43–21.28; 16 pairs of 6.55 nS.
For the substance “Cx36 E230K-E239K-E241K (from UniProt Q9UKL4 1-321) (natural protein)”, the median junctional conductance (Gj), dual whole-cell patch clamp of DKO HEK293 cell pairs, homotypic; IQR 0–0; 12 pairs in assay [3] turned out to be 0 nS.
In the case of “Cx36 K238A (from UniProt Q9UKL4 1-321) (natural protein)”, the median junctional conductance (Gj), dual whole-cell patch clamp of DKO HEK293 cell pairs, homotypic; IQR 0–0; 23 pairs with Cx36 K238A (human) worked out at 0 nS.
“Cx36 E241A (from UniProt Q9UKL4 1-321) (natural protein)”: the median junctional conductance (Gj), dual whole-cell patch clamp of DKO HEK293 cell pairs, homotypic; IQR 0.03–0.19; 18 pairs with Cx36 E241A (human) was determined as 0.09 nS. For the same substance, the median junctional conductance (Gj), dual whole-cell patch clamp of DKO HEK293 cell pairs, heterotypic; IQR 0–0; 16 pairs in the assay with Cx36 E230K-E239K (human) was found to be 0 nS.
As for “Cx31.3, human (from UniProt Q8NFK1 1-279) (natural protein)”, in the assay with Cx31.3, human (human), the median junctional conductance (Gj), dual whole-cell patch clamp of DKO HEK293 cell pairs, homotypic; IQR 0–0; 17 pairs was determined as 0 nS.
Turning to “Cx36 K238E (from UniProt Q9UKL4 1-321) (natural protein)”, the median junctional conductance (Gj), dual whole-cell patch clamp of DKO HEK293 cell pairs, homotypic; IQR 0–0; 19 pairs with Cx36 K238E (human) is 0 nS. Besides, in [3], the median junctional conductance (Gj), dual whole-cell patch clamp of DKO HEK293 cell pairs, heterotypic; IQR 0–0; 18 pairs turned out to be 0 nS. The median junctional conductance (Gj), dual whole-cell patch clamp of DKO HEK293 cell pairs, heterotypic; IQR 0–0; 15 pairs with Cx36 K238E-E230K (human) and with Cx36 K238E-E239K (human) was 0 nS each time. Also, in the assay with Cx36 E241K (human), the median junctional conductance (Gj), dual whole-cell patch clamp of DKO HEK293 cell pairs, heterotypic; IQR 0–0; 19 pairs was 0 nS.
For “Cx36 K238E-E230K (from UniProt Q9UKL4 1-321) (natural protein)”, the median junctional conductance (Gj), dual whole-cell patch clamp of DKO HEK293 cell pairs, homotypic; IQR 0–0; 15 pairs with Cx36 K238E-E230K (human) was found to be 0 nS.
As for “Cx36 K238E-E230K-E239K (from UniProt Q9UKL4 1-321) (natural protein)”, the median junctional conductance (Gj), dual whole-cell patch clamp of DKO HEK293 cell pairs, homotypic; IQR 0.08–0.14; 16 pairs in [4] came to 0.12 nS.
Turning to “Cx32 (from UniProt P08034 1-283) (natural protein)”, the median junctional conductance (Gj), dual whole-cell patch clamp of DKO HEK293 cell pairs, homotypic; IQR 0–16.23; 17 pairs with Cx32 (human) was 0.85 nS.
In the assay with Cx45, human (human), “Cx45, human (from UniProt P36383 1-396) (natural protein)” came in with a median junctional conductance (Gj), dual whole-cell patch clamp of DKO HEK293 cell pairs, homotypic; IQR 0.5–19.6; 29 pairs of 6.8 nS.
“Cx36 E230K-E239K (from UniProt Q9UKL4 1-321) (natural protein)” displayed a median junctional conductance (Gj), dual whole-cell patch clamp of DKO HEK293 cell pairs, heterotypic; IQR 0–0.18; 15 pairs in the assay with Cx36 K238E-E230K (human) of 0.09 nS. This substance also displayed a median junctional conductance (Gj), dual whole-cell patch clamp of DKO HEK293 cell pairs, homotypic; IQR 0–0; 20 pairs with Cx36 E230K-E239K (human) of 0 nS.
